Experimental data as given in the DeepSol protein solubility set.

experiment: soluble on expression in E. coli; label from the status in PepcDB or PDB records

Sequence | soluble on expression in E. coli
MGSDKIHHHHHHMAKIGRNEPCPCGSGKKYKRCCMSGVGKQQADFVDSIEQMLAMNPDLSMDELNIIAEHQSNKINTTPHKDFCGLAPGQVNNWLYAPFPELEGITINTPSDLSTSPVMRYLKLMLETALANGGQIKATAKGNLPAALVKEASAFLPEFAVAPFERAISISEFAGANEDKFNALHYCRVLAKIAGIFKLKSNKFHVSAWAKHQYQRAGLESFFPIMLETAVYKYNWGYFDLWENEIPLQHFWLFMLWRLQHHKSHERLVDEMIQAFPDLLNELYEEEYMSDRDKLAVLIESRFIHRFLQFFGFVMVDPRRVIDGKRVAAQVTCLRSMHETFNFRIE | not soluble
MIEPIWIDEQVALAIHERLISLHSGASGVRDKELLKSALARPLNLLAYDQQADVIHLAAAYTAGILQNHPFVDRNKRTGFVVGVLFLELNGYRFTAAEEDSAQAVIALAAGSLDEARFKLFLADNSIPV | not soluble
MSLINKHVISEKIKKAIVEANIKINPEVEEIIERYEGPFSDIIKENYRVSKEEKLPLCQDTGIVEFFVFIGHEVKLEEPIEETLNRAVGEVYSEYPFRYSVVSDPLFERINTGTNTPAIVHIFQVKGKSLEIRFLVRGGGSENLTVLRMMTPTSDVEKVKEFVIEHIKEHGAKACPPLHVGIGIGGTADKALLLSKLALTKSFKERNKDPKYAGLEKELEKELNFLGIGFQGLGKGITVYSVHIEHFPTHIATLPVAVSVDCYLCRRGKVTFEDEGGSHHHHHH | soluble
MKTKDQIDNIVKETYRHIDFSGVILVKEKKGIVYEEVFGYANRNECINNTLQTRFGIASGCKIFTAIGICQLVENGVITFQTKLKECLSVNFPNFNEDITIHHLLTHSSGIPDYFDESIMDNFEDLWKQTPMYLLKSLKDFLPLFQNRDMMYAPGSKFHYNNAGFIILGLIIEEQTGLTFTEYIEKNIFNPIGMNHSGYFSLDRLPRQTALGYIKDEISQTWRTNAYSIPIKGGSDGGAFITASDMLKFWEALFNYEIISQEYTKILLTPHIQVNNNQSYGYGIWIETRENKIFKYHVMGYDPGVSFRSAVYPDLGITLVIPSNKGAGAEKLMIEIEGSF | not soluble
MSLASIRTRIMILSDTHAQRFQPGLEPLEPVDLVIHCGDLTNNSTLRDYREAIHLLDSIKAPLKIVIAGNHDFSLDDKAYRRKIRETCRINQENLSGAIKAEYGQVGEAQQILLEAVAKGITFLSEGPHQLQLPSNSVLELYVSPYTPTHNCPGWGFQYDGIHDFNIKQGTDIVITHGPPLGIMDLTSNNERIGCPQLFAAVARAQPRVHCFGHVHEGWGAKLVSWRPNEGHHHHHH | not soluble
MGSLEKFNLIDEPWIPVLKGGRVVEVGIGEALLRAHEFARIETPSPLEEAVLHRLLLAVLHRALSGPRCPEDVLDWWRKGGFPQDPIRDYLNRFRDRFFLFHPEAPFLQVADLPEENPLPWSKLLPELASGNNPTLFDHTTEENLPKATYAQAARALLVHQAFAPGGLLRRYGVGSAKDAPVARPALFLPTGQNLLETLLLNLVPYTPEDDAPIWEVPPLRLGDLEGARTKWPLTGRTRVYTWPARGVRLLDEGDGVRFMGYGPGVEPLEATHRDPMVAQRLDAKGNLLVLRLSEERSFWRDFSAMLPRQGGKVAATLEHAENLQGELEDEGLEGRITLRVLGQVSDQAKVLDIRREVYPLPSGLLTPKAEENLEKALKMAEELGQGLKHLAQEVAKAVVGERDRGHGRSPYLEELTKLANSLPLERLYWHALDGAFPRFFARVEEEASLDLWREALRGAALEAWKATRRFLGTGARHLKALAQGEQEFGRLLGELGEEVRT | soluble
AKDAAFTVDGLSLTSKTNTVSTAISGMTFDLVAPSAAGATTTVTVATNTDGLKASLQSFVDSYNTLATLVTSLTKGSISDKGVFTAAALTGDATPRALLATIRDQLAGASSRAGLSALSQLGIKTQQSNGTLSLDTATFTAALNDKKLGSQIQTMFTGTGATNADGTVDGGLVARMSKALLPYTKADGVLASKTSSLTKVQTRIASDQDALDRRIESLTASLTKKYNAMDLVVGQLKATATSITSIFEAMNAQKNAS | not soluble
MGSDKIHHHHHHMPDTRITEDFLGFGLGLRTDHFEYILQHQPDIDWFEVLSENYLVAGGKPRYYLEAIAEQYPVVMHGVSMSIGSSDPLDMDYLKALKKLSNDIQPKWISDHICWTSIHGVNSHDLLPLPYTEETVNHVAQRVRQVQDVLGRRILLENVSSYLSYQDSTMDEWDFLSQVAEAADCLVLLDINNIYVSARNHHFNPLDYLKKIDPRRVQQFHLAGHSDFGDYVIDTHDHDVPPSVWTLYQAALERFGAVSTMIERDANIPEFPALYNELLEAKHIAQLTLPDDPALARSQFGSRSLDDLSKFINTNNASSQKVRA | not soluble
